The target of test [1] is T1, human CD39 (NTPDase1, ENTPD1), membrane-bound, on cells (human, UniProt P49961 1-510).
T1 sequence: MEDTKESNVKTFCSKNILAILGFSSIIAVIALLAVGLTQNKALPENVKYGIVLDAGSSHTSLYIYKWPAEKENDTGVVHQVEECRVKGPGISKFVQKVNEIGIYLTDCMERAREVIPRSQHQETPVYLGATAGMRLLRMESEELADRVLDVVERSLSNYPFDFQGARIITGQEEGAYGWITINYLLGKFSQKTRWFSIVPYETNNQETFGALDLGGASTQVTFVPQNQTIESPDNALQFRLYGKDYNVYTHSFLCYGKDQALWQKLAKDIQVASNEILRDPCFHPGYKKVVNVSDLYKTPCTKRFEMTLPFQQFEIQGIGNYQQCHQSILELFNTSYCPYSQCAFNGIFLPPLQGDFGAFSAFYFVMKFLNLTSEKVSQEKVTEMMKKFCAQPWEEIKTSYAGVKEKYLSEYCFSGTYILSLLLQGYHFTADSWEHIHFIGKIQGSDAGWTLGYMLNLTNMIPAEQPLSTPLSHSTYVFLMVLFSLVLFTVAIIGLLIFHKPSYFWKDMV
The test can be described thus: cell-based or functional assay.

Test [2] deals with T2, CD39-M2 extracellular domain recombinant protein (soluble human CD39) (human, UniProt P49961 38-478).
T2 sequence: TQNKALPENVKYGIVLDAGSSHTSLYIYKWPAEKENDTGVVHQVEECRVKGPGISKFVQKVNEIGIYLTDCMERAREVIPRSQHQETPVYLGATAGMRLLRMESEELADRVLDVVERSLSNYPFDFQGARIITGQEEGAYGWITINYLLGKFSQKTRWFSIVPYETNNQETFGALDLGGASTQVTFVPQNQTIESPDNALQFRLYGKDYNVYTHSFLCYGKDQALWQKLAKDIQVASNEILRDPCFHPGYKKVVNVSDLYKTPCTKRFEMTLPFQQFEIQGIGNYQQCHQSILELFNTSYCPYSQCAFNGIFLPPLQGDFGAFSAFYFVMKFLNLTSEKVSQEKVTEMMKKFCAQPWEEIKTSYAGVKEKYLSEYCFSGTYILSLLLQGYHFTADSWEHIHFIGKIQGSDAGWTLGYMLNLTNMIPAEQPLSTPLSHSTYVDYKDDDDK
The test can be described thus: cell-based or functional assay.

Test [3] concerns the target T3, Human CD39-L2, also known as NTPDase6 or ENTPD6 (human, UniProt O75354 61-484, limits assumed).
T3 construct: Recombinant protein coated in ELISA
T3 sequence: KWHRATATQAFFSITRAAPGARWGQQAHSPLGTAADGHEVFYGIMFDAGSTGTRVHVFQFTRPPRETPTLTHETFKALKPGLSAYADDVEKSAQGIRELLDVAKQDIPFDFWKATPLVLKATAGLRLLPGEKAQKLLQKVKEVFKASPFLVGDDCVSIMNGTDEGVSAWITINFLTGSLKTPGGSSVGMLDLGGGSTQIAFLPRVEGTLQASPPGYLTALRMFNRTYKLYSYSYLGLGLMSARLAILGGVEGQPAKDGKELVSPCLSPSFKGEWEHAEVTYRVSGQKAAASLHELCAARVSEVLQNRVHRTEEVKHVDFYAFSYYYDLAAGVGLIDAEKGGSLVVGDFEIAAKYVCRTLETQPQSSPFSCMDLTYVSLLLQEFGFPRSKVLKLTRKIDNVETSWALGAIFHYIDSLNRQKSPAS
The experiment in a line: ELISA on coated recombinant human CD39-L2 (panel huCD39 L2). The protocol:
(§1) Wells were washed in TBS Tween 20, and further saturated 2H at RT in TBS Blocking buffer. Dose range concentration of primary antibody was incubated in TBS blocking buffer for 2 h at RT. Wells were washed in TBS Tween 20. […] Optical density was measured on Enspire™ at OD=450.
On the technique in general: In an ELISA, binding on a coated surface is turned into a signal by an enzyme label.

For test [4], the target named is T4, Human CD39-L4, also known as NTPDase5 or ENTPD5 (human, UniProt O75356 25-428).
T4 construct: Recombinant protein coated in ELISA
T4 sequence: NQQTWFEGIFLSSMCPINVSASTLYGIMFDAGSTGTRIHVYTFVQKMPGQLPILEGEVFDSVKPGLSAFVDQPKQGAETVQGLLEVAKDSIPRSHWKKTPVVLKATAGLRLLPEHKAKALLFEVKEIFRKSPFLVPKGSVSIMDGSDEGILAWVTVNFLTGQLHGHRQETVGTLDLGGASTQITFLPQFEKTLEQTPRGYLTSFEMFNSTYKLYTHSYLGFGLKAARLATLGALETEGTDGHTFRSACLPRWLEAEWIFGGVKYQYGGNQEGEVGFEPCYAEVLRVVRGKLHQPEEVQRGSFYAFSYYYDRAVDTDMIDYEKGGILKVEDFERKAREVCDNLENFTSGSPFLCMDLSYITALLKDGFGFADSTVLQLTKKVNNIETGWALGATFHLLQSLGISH
The test can be described thus: ELISA on coated recombinant human CD39-L4 (panel huCD39 L4). The protocol:
as §1

In test [5] the target is T5, Human CD39-L3, also known as NTPDase3 or ENTPD3 (human, UniProt O75355 44-485, limits assumed).
T5 construct: Recombinant protein coated in ELISA
T5 sequence: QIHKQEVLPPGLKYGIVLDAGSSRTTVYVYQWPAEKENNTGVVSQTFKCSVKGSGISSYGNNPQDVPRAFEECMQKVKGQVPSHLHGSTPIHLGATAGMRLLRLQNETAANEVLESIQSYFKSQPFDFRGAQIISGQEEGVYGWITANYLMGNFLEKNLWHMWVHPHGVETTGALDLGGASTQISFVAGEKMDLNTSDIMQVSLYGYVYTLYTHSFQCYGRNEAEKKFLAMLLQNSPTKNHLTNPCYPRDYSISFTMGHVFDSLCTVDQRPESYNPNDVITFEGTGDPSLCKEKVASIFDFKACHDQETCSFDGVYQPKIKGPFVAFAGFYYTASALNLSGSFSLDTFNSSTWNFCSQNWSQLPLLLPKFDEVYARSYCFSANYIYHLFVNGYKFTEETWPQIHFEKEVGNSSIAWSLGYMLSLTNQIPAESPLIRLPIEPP
The test can be described thus: ELISA on coated recombinant human CD39-L3 (panel huCD39 L3). The protocol: as §1

B1: antibody I-394 (antibody, human IgG1, kappa, V domains shown)
VH: EVQLQQSGPELVKPGASVKMSCKASGYTFTDYNMHWVKQSHGRTLEWIGYIVPLNGGSTFNQKFKGRATLTVNTSSRTAYMELRSLTSEDSAAYYCARGGTRFAYWGQGTLVTVSA
VL: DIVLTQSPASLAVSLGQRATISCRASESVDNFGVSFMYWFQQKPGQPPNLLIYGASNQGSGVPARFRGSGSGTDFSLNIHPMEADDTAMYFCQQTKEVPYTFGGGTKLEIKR
B1: the “IC50 (inhibition of 50% of the enzymatic activity of CD39 expressed by 50,000 Ramos cells)” value in test [1] came to 0.05 µg/mL. The “IC50, inhibition of the ATPase activity of soluble CD39 protein” value in test [2] was 0.003 µg/mL. For the same molecule, the binding result in test [3], in test [4] and in test [5] was “no binding (tested: about 50 µg/ml)” throughout.
